Measurements: the RNAGym collection of RNA variant scans (doi:10.7554/elife.80360)

B1: CPEB3 Ribozyme (parent)
chain: GGGGGCCACAGCAGAAGCGUUCACGUCGCGGCCCCUGUCAGAUUCUGGUGAAUCUGCGAAUUCUGCUGU

Variants of: B1
Assay: self-cleavage, relative activity (ratio to wild type); higher = more cleavage; co-transcriptional

Variant | self-cleavage
GGGGACCACAGCAGAACCGUUCACGUCGCGGCCCCUGUCAGAUUCUGGUGAAUCUGCGAAUUCUGCUGU | 0.0889
GGGGACCACAGCAGAAACGUUCACGUCGCGGCCCCUGUCAGAUUCUGGUGAAUCUGCGAAUUCUGCUGU | 0.166
GGGUGCCACAGCAGAAGCGUUCACGUCGCGGCCCCUGUCAUAUUCUGGUGAAUCUGCGAAUUCUGCUGU | 0.251
GGGUGCCACAGCAGAAGCGUUCACGUCGCGGCCCCUGUCAAAUUCUGGUGAAUCUGCGAAUUCUGCUGU | 0.265
GGGUGCCACAGCAGAAGCGUUCACGUCGCGGCCCCUGUCAGAUUCUGGUGAAUCUGCGAAUUCUUCUGU | 0.254
GGGUGCCACAGCAGAAGCGUUCACGUCGCGGCCCCUGUCAGAUUCUGGUGAAUCUGCGAAUUCUCCUGU | 0.411
GGGGACCACAGCAGAAGCUUUCACGUCGCGGCCCCUGUCAGAUUCUGGUGAAUCUGCGAAUUCUGCUGU | 0.197
GGGUGCCACAGCAGAAGCGUUCACGUCGCGGCCCCUGUCAGAUUCUGGUGAAUCUGCGAAUUCUGCUAU | 0.983
GGGUGCCACAGCAGAAGCGUUCACGUCGCGGCCCCUGUCAGAUUCUGGUGAAUCUGCGAAUUCUGCUCU | 0.97
GGGGACCACAACAGAAGCGUUCACGUCGCGGCCCCUGUCAGAUUCUGGUGAAUCUGCGAAUUCUGCUGU | 0.785
GGGUGCCACAGCAGAAGCGUUCACGUCGCGGCCCCUGUCAGACUCUGGUGAAUCUGCGAAUUCUGCUGU | 0.462
GGGUGCCACAGCAGAAGCGUUCACGUCGCGGCCCCUGUCAGAUUCUGGUGAAUCUGCGAAGUCUGCUGU | 0.439
GGGUGCCACAGCAGAAGCGUUCACGUCGCGGCCCCUGUCAGAUUCUGGUGAAUCUGCGAAAUCUGCUGU | 0.154
GGGUGCCACAGCAGAAGCGUUCACGUCGCGGCCCCUGUCAGAUUCUGGAGAAUCUGCGAAUUCUGCUGU | 0.821
GGGUGCCACAGCAGAAGCGUUCACGUCGCGGCCCCUGUCAGAUUCUGGCGAAUCUGCGAAUUCUGCUGU | 0.758
GGGGACCACAGCAGAAGAGUUCACGUCGCGGCCCCUGUCAGAUUCUGGUGAAUCUGCGAAUUCUGCUGU | 0.12
GGGGACCACAGCAGAAGCGUUCACGUCGCGGCCCCUGUCAGAUUCUGGUGAAUCUGCGAAUUGUGCUGU | 0.448
GGGUGCCACAGCAGAAGCGUUCACGUCGCGGCCCCUGUCAGAUUCUGUUGAAUCUGCGAAUUCUGCUGU | 0.813
GGGUGCCACAGCAGAAGCGUUCACGUCGCGGCCCCUGUCAGAUUCUGCUGAAUCUGCGAAUUCUGCUGU | 0.752
GGGGACCACAGCAGAAGCGUUCACGUCGCGGCCCCUGUCAGAUUCUGGUGAAUCUGCGAAUUCUGCUGU | 0.933

Variant | self-cleavage
GGGUGCCACAGCAGAAGCGUUCACGUCGCGGCCCCUGUCAGAUUCUGGUGAAUCUACGAAUUCUGCUGU | 0.466
GGGGACCACAGCAGAAGCGUUCACGUCGCGGCCUCUGUCAGAUUCUGGUGAAUCUGCGAAUUCUGCUGU | 0.599
GGGGACCACAGCAGAAGCGUUCACGUCGCGGCCACUGUCAGAUUCUGGUGAAUCUGCGAAUUCUGCUGU | 0.203
GGGUGCCACAGCAGAAGCGUUCACGUCGCGGCCCCUGUCAGAUUCUGGUGAAUCUGCGAAUUCUGGUGU | 0.431
GGGGACCACAGUAGAAGCGUUCACGUCGCGGCCCCUGUCAGAUUCUGGUGAAUCUGCGAAUUCUGCUGU | 0.931
GGGGACCACAGCAGACGCGUUCACGUCGCGGCCCCUGUCAGAUUCUGGUGAAUCUGCGAAUUCUGCUGU | 0.134
GGGGACCACAGCAGAAGCGUUCACGUCGCGGCUCCUGUCAGAUUCUGGUGAAUCUGCGAAUUCUGCUGU | 0.568
GGGUGCCACAGCAGAAGCGUGCACGUCGCGGCCCCUGUCAGAUUCUGGUGAAUCUGCGAAUUCUGCUGU | 0.054
GGGGACCACAGCAGAAGCGUUCACGUCGGGGCCCCUGUCAGAUUCUGGUGAAUCUGCGAAUUCUGCUGU | 0.175
GGGUGCCACAGCAGAAGCGUUCACGUCGCGGCCCCUGUUAGAUUCUGGUGAAUCUGCGAAUUCUGCUGU | 0.376
GGGUGCCACAGCAGAAGCGUUCACGUCGCGGCCCCUGUGAGAUUCUGGUGAAUCUGCGAAUUCUGCUGU | 0.558
GGGUCCCACAGCAGAAGCGUUCACGUCGCGGCCCCUGUCAGAUUCUGGUGAAUCUGCGAAUUCUGCUGU | 0.105
GGGUACCACAGCAGAAGCGUUCACGUCGCGGCCCCUGUCAGAUUCUGGUGAAUCUGCGAAUUCUGCUGU | 0.0691
GGGGACCACAGCAGAAGCGUUCACGUCGCGGCCCCUGUCAGCUUCUGGUGAAUCUGCGAAUUCUGCUGU | 0.505
GGGGACCACAGCAGAAGCGUUCACGUCGCGGCCCCUGUCAGAUUCUGCUGAAUCUGCGAAUUCUGCUGU | 0.956
GGGGACCACAGCAGAAGCGUUCACGUCGCGGCCCCUGUUAGAUUCUGGUGAAUCUGCGAAUUCUGCUGU | 0.653
GGGGACCACAGCAGAAGCGUUAACGUCGCGGCCCCUGUCAGAUUCUGGUGAAUCUGCGAAUUCUGCUGU | 0.134
GGGGACCACAGCAGAAGCGUUCACGUCGCGGCCCCUAUCAGAUUCUGGUGAAUCUGCGAAUUCUGCUGU | 0.143
GGGGACCACAGCAGAAGCGUUCACGUCGCGGCCCCUGUCAGAUUCUGGUGAAUCUGCGUAUUCUGCUGU | 0.415
